Results reported in paper PMC4254523.

Columns and labels:
Test in all cases: SPR
[1] = target: human FcγRII (CD32), CD32A-131H (human) (UniProt P12318)
[2] = target: human FcγRII (CD32), CD32B (human) (UniProt P31994)
[3] = target: human FcγRII (CD32), CD32A-131R (human)

Chain of UniProt P31994 (P31994 43-310): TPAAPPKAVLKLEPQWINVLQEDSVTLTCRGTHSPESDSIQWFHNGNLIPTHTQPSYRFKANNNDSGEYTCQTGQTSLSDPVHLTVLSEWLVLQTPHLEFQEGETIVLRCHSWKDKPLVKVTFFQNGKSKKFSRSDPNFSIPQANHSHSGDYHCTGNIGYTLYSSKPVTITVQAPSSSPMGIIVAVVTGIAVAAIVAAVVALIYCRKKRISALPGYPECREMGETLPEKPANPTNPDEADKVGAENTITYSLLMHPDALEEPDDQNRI
Chain of UniProt P12318 (P12318 34-317): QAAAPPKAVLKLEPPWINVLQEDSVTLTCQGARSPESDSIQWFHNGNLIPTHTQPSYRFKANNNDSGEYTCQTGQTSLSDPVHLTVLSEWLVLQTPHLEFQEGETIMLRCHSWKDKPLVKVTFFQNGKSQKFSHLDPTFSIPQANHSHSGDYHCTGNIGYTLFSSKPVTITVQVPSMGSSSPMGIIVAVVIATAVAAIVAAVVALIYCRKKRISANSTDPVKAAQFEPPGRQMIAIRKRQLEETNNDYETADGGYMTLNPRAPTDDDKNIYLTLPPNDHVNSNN

mouse 3F8 (IgG3) (antibody)
Ka [1]: 17300 M⁻¹
koff [1]: 1.1 s⁻¹
Ka [2]: 5660 M⁻¹
koff [2]: 2.03 s⁻¹
kon [2]: 11500 M⁻¹ s⁻¹

hu3F8 (IgG1) (antibody)
Ka [1]: 631000 M⁻¹
koff [1]: 0.427 s⁻¹
Ka [2]: 83700 M⁻¹
koff [2]: 0.341 s⁻¹
kon [2]: 28600 M⁻¹ s⁻¹

B1: mouse 3F8 (IgG3) (antibody, V domains shown)
VH: QVQLKESGPGLVAPSQSLSITCTVSGFSVTNYGVHWVRQPPGKGLEWLGVIWAGGITNYNSAFMSRLSISKDNSKSQVFLKMNSLQIDDTAMYYCASRGGHYGYALDYWGQGTSVTVSS
VL: SIVMTQTPKFLLVSAGDRVTITCKASQSVSNDVTWYQQKAGQSPKLLIYSASNRYSGVPDRFTGSGYGTAFTFTISTVQAEDLAVYFCQQDYSSFGGGTKLEIK
Ka [3]: 71500 M⁻¹
koff [3]: 0.363 s⁻¹
kon [3]: 25900 M⁻¹ s⁻¹

B2: hu3F8 (IgG1) (antibody, V domains shown)
VH: QVQLVESGPGVVQPGRSLRISCAVSGFSVTNYGVHWVRQPPGKGLEWLGVIWAGGITNYNSAFMSRLTISKDNSKNTVYLQMNSLRAEDTAMYYCASRGGHYGYALDYWGQGTLVTVSS
VL: EIVMTQTPATLSVSAGERVTITCKASQSVSNDVTWYQQKPGQAPRLLIYSASNRYSGVPARFSGSGYGTEFTFTISSVQSEDFAVYFCQQDYSSFGQGTKLEIK
Ka [3]: 368000 M⁻¹
koff [3]: 0.406 s⁻¹
kon [3]: 149000 M⁻¹ s⁻¹
